The assay concerns the target muscle-specific receptor tyrosine kinase (MuSK), Torpedo orthologue (Torpedo (endogenous in electric tissue)). In words: cross-linking.

As for “40-kD COOH-terminal fragment of MAGI-1c (Torpedo) (domain or fragment)”, the percent of total MuSK in the 140-kD cross-link product is < 30%.
